Test in all cases: high-throughput RNA pulldown from lysate on Ni-NTA beads; HRP: 50 mM Tris pH 8, 150 mM NaCl, 1 mM beta-mercaptoethanol, 50 ug/ml BSA, 3 ug/ml yeast RNA, 0.5% heparin; ITC and FP: Tris pH 8, 200 mM KCl, 5% glycerol; MST: 50 mM Tris pH 8, 200 mM NaCl, 1 mM DTT, BSA, heparin, 0.05% Tween 20
Common to all, as to conditions: tags: N-terminal His-eGFP

Data set [1] deals with T1, GFP-9S library array, motif 4 ND N98P;D124H (synthetic construct, N98P;D124H).
T1 chain: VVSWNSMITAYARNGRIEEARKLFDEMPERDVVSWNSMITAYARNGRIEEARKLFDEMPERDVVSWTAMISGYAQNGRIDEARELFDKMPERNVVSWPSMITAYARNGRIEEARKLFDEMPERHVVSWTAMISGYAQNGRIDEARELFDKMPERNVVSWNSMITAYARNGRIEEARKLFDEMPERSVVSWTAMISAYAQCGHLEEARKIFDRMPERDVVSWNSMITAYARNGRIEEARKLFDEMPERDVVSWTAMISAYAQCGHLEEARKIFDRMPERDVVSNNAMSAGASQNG

Data set [2] concerns the target T2, GFP-9S library array, motif 4 ND N98Y;D124P (synthetic construct, N98Y;D124P).
T2 chain: T1 chain with P98Y, H124P

Data set [3] addresses T3, GFP-9S library array, motif 4 ND N98H;D124G (synthetic construct, N98H;D124G).
T3 chain: T1 chain with P98H, H124G

The target in data set [4] is T4, GFP-9S library array, motif 4 ND N98T;D124K (synthetic construct, N98T;D124K).
T4 chain: T1 chain with P98T, H124K

Data set [5] addresses T5, GFP-9S library array, motif 4 ND N98R;D124W (synthetic construct, N98R;D124W).
T5 chain: T1 chain with P98R, H124W

Substitutions are numbered along the chain they refer to.

Consider AUUAAACGUGA (ssRNA) [IR-rpoA-A], for which the Kd (usually the free concentration of one partner at which half of the binding sites on the other are occupied at equilibrium, for simple one-to-one binding) in data set [1] (label: 5' IRDye 800CW) is 332 nM; in data set [2] (label: 5' IRDye 800CW), 219 nM; in data set [3] (label: 5' IRDye 800CW), 61.3 nM; in data set [4] (label: 5' IRDye 800CW), 53.4 nM; in data set [5] (label: 5' IRDye 800CW), 249 nM.
As to AUUAGACGUGA (ssRNA) [Cy5-rpoA-G], the Kd in data set [1] (label: 5' Cy5) was 143 nM; in data set [2] (label: 5' Cy5), 110 nM; in data set [3] (label: 5' Cy5), 37.1 nM; in data set [4] (label: 5' Cy5) it was 131 nM; in data set [5] (label: 5' Cy5), 88.7 nM.
On to AUUACACGUGA (ssRNA) [Cy5-rpoA], for which the Kd in data set [1] (label: 5' Cy5) was determined as 94.4 nM; in data set [2] (label: 5' Cy5), 106 nM; in data set [3] (label: 5' Cy5) it was 101 nM; in data set [4] (label: 5' Cy5) it was 131 nM; in data set [5] (label: 5' Cy5), 147 nM.
Turning to AUUAUACGUGA (ssRNA) [IR-rpoA-U], the Kd came out at 143 nM in data set [1] (label: 5' IRDye 800CW); 160 nM in data set [2] (label: 5' IRDye 800CW); 38.7 nM in data set [3] (label: 5' IRDye 800CW); 81.9 nM in data set [4] (label: 5' IRDye 800CW); 337 nM in data set [5] (label: 5' IRDye 800CW).

The record behind these values is PMC8809517, “Cofactor-independent RNA editing by a synthetic S-type PPR protein”.
